Tests used:
Assay in all cases: SPR; Biacore 8K; EGFR extracellular domain immobilised on CM5 chip by amine coupling (~1000 RU); VHHs injected in two-fold serial dilutions at 30 μl/min; 25°C; PBS with 0.005% Tween20
Conditions in all cases: both partners purified
[1] = target: T1, extracellular domain of epidermal growth factor receptor (EGFR), residues 1–618 (Homo sapiens (; human EGFR in …, UniProt P00533)
T1 construct: Epidermal growth factor receptor (EGFR), extracellular domain, residues 1-618; also called extracellular domain of EGFR; source: Sf9 expression system (baculovirus), purified from the culture supernatant (Ni-NTA, SEC)

[2] = target: T1, extracellular domain of epidermal …; remark: listed apart in the source
[3] = target: T1, extracellular domain of epidermal …; remark: listed apart in the source

Row | Binder | Kd [1] [nM] | koff [1] [s⁻¹] | kon [1] [M⁻¹ s⁻¹] | Kd [2] [nM] | Kd [3] [nM] | koff [3] [s⁻¹] | kon [3] [M⁻¹ s⁻¹]
1 | 7D12‐Vob Y42F (VHH, PDB 7XL1) with the stated change; IMGT numbering; source: E. coli BL21(DE3), periplasmic fraction, purified (Ni-NTA, SEC)) VHH: EVQLVESGGGLVQPGGSLRLSCAASGRTSRSYGMGWFRQAPGKGRELVAGISWRGDSTGYADSVKGRFTISRDNAKNTLYLQMNSLRPEDTAVYYCAFAAGSAWYGTLYEYDYWGQGTLVTVSS | 191 | 0.137 | 713000 |  |  |  | 
2 | 7D12‐Vob Y42F‐L52F‐F106A (VHH, PDB 7XL1) with the stated changes; IMGT numbering; also called triple mutant; source: E. coli BL21(DE3), periplasmic fraction, purified (Ni-NTA, SEC)) VHH: EVQLVESGGGLVQPGGSLRLSCAASGRTSRSYGMGWFRQAPGKGREFVAGISWRGDSTGYADSVKGRFTISRDNAKNTLYLQMNSLRPEDTAVYYCAAAAGSAWYGTLYEYDYWGQGTLVTVSS | 38 | 0.0693 | 1.82e+06 |  |  |  | 
3 | 7D12‐Vob Y42F‐L52F (VHH, PDB 7XL1) with the stated changes; IMGT numbering; source: E. coli BL21(DE3), periplasmic fraction, purified (Ni-NTA, SEC)) VHH: EVQLVESGGGLVQPGGSLRLSCAASGRTSRSYGMGWFRQAPGKGREFVAGISWRGDSTGYADSVKGRFTISRDNAKNTLYLQMNSLRPEDTAVYYCAFAAGSAWYGTLYEYDYWGQGTLVTVSS | 110 | 0.0799 | 729000 |  |  |  | 
4 | 7D12‐Vob E1Q‐Y42F‐L52F‐F106A (VHH, PDB 7XL1) with the stated changes; IMGT numbering; also called quadruple mutant; source: E. coli BL21(DE3), periplasmic fraction, purified (Ni-NTA, SEC)) VHH: QVQLVESGGGLVQPGGSLRLSCAASGRTSRSYGMGWFRQAPGKGREFVAGISWRGDSTGYADSVKGRFTISRDNAKNTLYLQMNSLRPEDTAVYYCAAAAGSAWYGTLYEYDYWGQGTLVTVSS |  |  |  | 4.7 |  |  | 
5 | 7D12‐Vob L52F (VHH, PDB 7XL1) with the stated change; IMGT numbering; source: E. coli BL21(DE3), periplasmic fraction, purified (Ni-NTA, SEC)) VHH: EVQLVESGGGLVQPGGSLRLSCAASGRTSRSYGMGWYRQAPGKGREFVAGISWRGDSTGYADSVKGRFTISRDNAKNTLYLQMNSLRPEDTAVYYCAFAAGSAWYGTLYEYDYWGQGTLVTVSS | 358 | 0.123 | 344000 |  |  |  | 
6 | 7D12‐Vob (VHH, CDRs of 7D12 grafted onto the framework regions of Vobarilizumab; PDB 7XL1; also called chimeric VHH; source: E. coli BL21(DE3), periplasmic fraction, purified (Ni-NTA, SEC)) VHH: EVQLVESGGGLVQPGGSLRLSCAASGRTSRSYGMGWYRQAPGKGRELVAGISWRGDSTGYADSVKGRFTISRDNAKNTLYLQMNSLRPEDTAVYYCAFAAGSAWYGTLYEYDYWGQGTLVTVSS |  |  |  |  | 1450 | 0.247 | 169000
7 | 7D12‐Vob F106A (VHH, PDB 7XL1) with the stated change; IMGT numbering; source: E. coli BL21(DE3), periplasmic fraction, purified (Ni-NTA, SEC)) VHH: EVQLVESGGGLVQPGGSLRLSCAASGRTSRSYGMGWYRQAPGKGRELVAGISWRGDSTGYADSVKGRFTISRDNAKNTLYLQMNSLRPEDTAVYYCAAAAGSAWYGTLYEYDYWGQGTLVTVSS | 482 | 0.152 | 316000 |  |  |  | 

Source: publication PMC9601775 (Protein Science : A Publication of the Protein Society, 2022)
